Patent US20110229525A1 (VANDERBILT UNIVERSITY, published 2011)

Target: JAK2 (UniProt Q62120 1-1132)
Test: cell-based or functional assay

JAK2, sequence (Q62120 whole entry): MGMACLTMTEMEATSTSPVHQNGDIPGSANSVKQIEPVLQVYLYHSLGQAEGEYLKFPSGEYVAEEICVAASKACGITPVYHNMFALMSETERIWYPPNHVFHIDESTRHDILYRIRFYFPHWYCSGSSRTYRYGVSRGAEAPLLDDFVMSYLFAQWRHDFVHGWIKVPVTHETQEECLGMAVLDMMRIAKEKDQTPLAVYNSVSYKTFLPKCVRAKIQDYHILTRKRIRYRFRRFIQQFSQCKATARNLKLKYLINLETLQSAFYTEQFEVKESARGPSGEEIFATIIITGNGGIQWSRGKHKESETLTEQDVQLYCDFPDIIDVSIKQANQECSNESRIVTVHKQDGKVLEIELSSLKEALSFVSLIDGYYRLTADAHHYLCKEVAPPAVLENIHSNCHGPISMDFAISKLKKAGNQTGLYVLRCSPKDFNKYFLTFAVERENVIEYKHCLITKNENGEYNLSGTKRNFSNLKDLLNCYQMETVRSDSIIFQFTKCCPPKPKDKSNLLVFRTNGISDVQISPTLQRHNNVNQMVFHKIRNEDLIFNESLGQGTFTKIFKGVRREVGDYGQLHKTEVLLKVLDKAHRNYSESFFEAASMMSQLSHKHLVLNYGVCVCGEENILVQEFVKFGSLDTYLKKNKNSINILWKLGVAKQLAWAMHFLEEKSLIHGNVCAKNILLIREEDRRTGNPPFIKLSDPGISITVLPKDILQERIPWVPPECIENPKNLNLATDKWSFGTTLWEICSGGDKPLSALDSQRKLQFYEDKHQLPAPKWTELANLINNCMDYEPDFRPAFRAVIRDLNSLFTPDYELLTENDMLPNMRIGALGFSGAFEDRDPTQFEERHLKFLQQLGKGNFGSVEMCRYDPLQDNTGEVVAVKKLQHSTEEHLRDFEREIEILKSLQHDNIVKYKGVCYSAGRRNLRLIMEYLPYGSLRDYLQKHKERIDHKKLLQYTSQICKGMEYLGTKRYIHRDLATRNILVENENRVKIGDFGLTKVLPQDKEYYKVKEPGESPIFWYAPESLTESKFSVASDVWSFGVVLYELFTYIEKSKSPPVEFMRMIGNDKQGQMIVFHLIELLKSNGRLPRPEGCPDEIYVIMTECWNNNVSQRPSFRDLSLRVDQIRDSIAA

concentration of CP-SOCS1 that inhibited phosphorylation of STAT1 by 50% (IC50), AMJ2.C8 macrophages stimulated with IFN-g and LPS: < 1900 µM
B1: CP-SOCS1 (recombinant cell-penetrating murine SOCS1 with MTM and 6x histidine tag) (other, human;murine, UniProt P08620 7-22, looked up, not shown: small tags and cut ends)
chain: AAVALLPAVLLALLAPMVARNQVAADNAISPAAEPRRRSEPSSSSSSSSPAAPVRPRPCPAVPAPAPGDTHFRTFRSHSDYRRITRTSALLDACGFYWGPLSVHGAHERLRAEPVGTFLVRDSRQRNCFFALSVKMASGPTSIRVHFQAGRFHLDGSRETFDCLFELLEHYVAAPRRMLGAPLRQRRVRPLQELCRQRIVAAVGRENLARIPLNPVLRDYLSSFPFQI
